Measured values from patent publication US11833164B2, “Methods of treating Fabry disease in patients having a mutation in the GLA gene” (Amicus Therapeutics, Inc., priority 2019, dated 2023).

Tested on: mutant form of α-Gal A expressed in HEK-293 cells
Assay: HEK assay (GLP HEK / Migalastat Amenability Assay): α-Gal A activity in lysates of transiently transfected HEK-293 cells incubated with or without 10 μM migalastat
Format: cell-based, human
Conditions: for Absolute increase (% WT): 10 μM migalastat versus baseline; for Relative increase: 10 μM migalastat α-Gal A activity relative to baseline; for 10 μM migalastat α-Gal A activity (% WT): 5 days; for 10 μM migalastat α-Gal A activity (% WT) / Baseline α-Gal A activity (% WT): percentage of baseline wild-type α-Gal A activity; for 10 μM migalastat α-Gal A activity (% WT) / Baseline α-Gal A activity (% WT) / Baseline α-Gal A activity / 10 μM migalastat α-Gal A activity: mean ± SEM; for Baseline α-Gal A activity (% WT): absence of migalastat; for Baseline α-Gal A activity / 10 μM migalastat α-Gal A activity: lysates of HEK-293 cells transfected with the mutant form; for Baseline α-Gal A activity: incubated 5 days in the absence of migalastat; for 10 μM migalastat α-Gal A activity: incubated 5 days with 10 μM migalastat
In short: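 Activity reported as 4-MU released (nmol/mg/hr), mean±SEM, from lysates of transiently transfected HEK-293 cells expressing mutant α-Gal A, cultured with or without 10 μM migalastat.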

| Molecule | Absolute increase (% WT) | Relative increase | 10 μM migalastat α-Gal A activity (% WT) | Baseline α-Gal A activity (% WT) | Baseline α-Gal A activity [nmol/mg/h] | 10 μM migalastat α-Gal A activity [nmol/mg/h] |
| --- | --- | --- | --- | --- | --- | --- |
| A143G (protein) MQLRNPELHLGCALALRFLALVSWDIPGARALDNGLARTPTMGWLHWERFMCNLDCQEEPDSCISEKLFMEMAELMVSEGWKDAGYEYLCIDDCWMAPQRDSEGRLQADPQRFPHGIRQLANYVHSKGLKLGIYADVGNKTCGGFPGSFGYYDIDAQTFADWGVDLLKFDGCYCDSLENLADGYKHMSLALNRTGRSIVYSCEWPLYMWPFQKPNYTEIRQYCNHWRNFADIDDSWKSIKSILDWTSFNQERIVDVAGPGGWNDPDMLVIGNFGLSWNQQVTQMALWAIMAAPLFMSNDLRHISPQAKALLQDKDVIAINQDPLGKQGYQLRQGDNFEVWERPLSGLAWAVAMINRQEIGGPRSYTIAVASLGKGVACNPACFITQLLPVKRKLGFYEWTSRLRSHINPTGTVLLQLENTMQMSLKDLL | 51.9 | 1.8 | 119.7 ± 5.9 | 67.8 ± 3.4 | 20419 ± 1260 | 36821 ± 2997 |
| G144A (protein) MQLRNPELHLGCALALRFLALVSWDIPGARALDNGLARTPTMGWLHWERFMCNLDCQEEPDSCISEKLFMEMAELMVSEGWKDAGYEYLCIDDCWMAPQRDSEGRLQADPQRFPHGIRQLANYVHSKGLKLGIYADVGNKTCAAFPGSFGYYDIDAQTFADWGVDLLKFDGCYCDSLENLADGYKHMSLALNRTGRSIVYSCEWPLYMWPFQKPNYTEIRQYCNHWRNFADIDDSWKSIKSILDWTSFNQERIVDVAGPGGWNDPDMLVIGNFGLSWNQQVTQMALWAIMAAPLFMSNDLRHISPQAKALLQDKDVIAINQDPLGKQGYQLRQGDNFEVWERPLSGLAWAVAMINRQEIGGPRSYTIAVASLGKGVACNPACFITQLLPVKRKLGFYEWTSRLRSHINPTGTVLLQLENTMQMSLKDLL | 15.5 | 1.3 | 60.4 ± 2.8 | 44.9 ± 3.6 | 20304 ± 1590 | 27268 ± 1039 |
| G144C (protein) MQLRNPELHLGCALALRFLALVSWDIPGARALDNGLARTPTMGWLHWERFMCNLDCQEEPDSCISEKLFMEMAELMVSEGWKDAGYEYLCIDDCWMAPQRDSEGRLQADPQRFPHGIRQLANYVHSKGLKLGIYADVGNKTCACFPGSFGYYDIDAQTFADWGVDLLKFDGCYCDSLENLADGYKHMSLALNRTGRSIVYSCEWPLYMWPFQKPNYTEIRQYCNHWRNFADIDDSWKSIKSILDWTSFNQERIVDVAGPGGWNDPDMLVIGNFGLSWNQQVTQMALWAIMAAPLFMSNDLRHISPQAKALLQDKDVIAINQDPLGKQGYQLRQGDNFEVWERPLSGLAWAVAMINRQEIGGPRSYTIAVASLGKGVACNPACFITQLLPVKRKLGFYEWTSRLRSHINPTGTVLLQLENTMQMSLKDLL | 7.1 | 3.9 | 9.5 ± 0.8 | 2.5 ± 0.2 | 759 ± 69 | 2988 ± 262 |
| G144R (protein) MQLRNPELHLGCALALRFLALVSWDIPGARALDNGLARTPTMGWLHWERFMCNLDCQEEPDSCISEKLFMEMAELMVSEGWKDAGYEYLCIDDCWMAPQRDSEGRLQADPQRFPHGIRQLANYVHSKGLKLGIYADVGNKTCARFPGSFGYYDIDAQTFADWGVDLLKFDGCYCDSLENLADGYKHMSLALNRTGRSIVYSCEWPLYMWPFQKPNYTEIRQYCNHWRNFADIDDSWKSIKSILDWTSFNQERIVDVAGPGGWNDPDMLVIGNFGLSWNQQVTQMALWAIMAAPLFMSNDLRHISPQAKALLQDKDVIAINQDPLGKQGYQLRQGDNFEVWERPLSGLAWAVAMINRQEIGGPRSYTIAVASLGKGVACNPACFITQLLPVKRKLGFYEWTSRLRSHINPTGTVLLQLENTMQMSLKDLL | 37.7 | 2.0 | 73.4 ± 6.5 | 35.7 ± 2.8 | 10574 ± 838 | 21406 ± 1764 |
